Data as given in paper PMC6078952.

Biological target: Anastellin
Assay: BLI; Octet RED96, anastellin (100 µg/ml) covalently coupled to AR2G biosensors via amine groups, sensors dipped into LOX-PP solutions for 3 min in HBS-P20; 1:1 model

Kd: 152 nM | koff: 0.000445 s⁻¹ | kon: 2930 M⁻¹ s⁻¹
B1: recombinant human propeptide of lysyl oxidase (LOX-PP) (domain or fragment)
chain: APLAAGQQQPPREPPAAPGAWRQQIQWENNGQVFSLLSLGSQYQPQRRRDPGAAVPGAANASAQQPRTPILLIRDNRTAAARTRTAGSSGVTAGRPRPTARHWFQAGYSTSRAREAGASRAENQTAPGEVPALSNLRPPSRVDGMVG
modifications: N-linked oligosaccharides (removed by PNGase F, about 13 kDa; three glycosylated asparagine residues: N81, N97, N144)
